Laboratory results as given in patent US10072252B2 (priority 2013, dated 2018).
Several values for one entry are separate records, joined by “and”; a condition that tells them apart may be missing. Identical values can stand only once.

How the values were obtained:
[1] = biological target: T1, Sulfolobus solfataricus SsoPox variant W263M, SEQ ID NO: 9 (Saccharolobus solfataricus, UniProt Q97VT7, W263M); format: biochemical
T1 construct: made in house; host or cells: E. coli BL21(DE3)-pGro7/GroEL

[2] = biological target: T2, Sulfolobus solfataricus SsoPox variant W263L, SEQ ID NO: 11 (Saccharolobus solfataricus, UniProt Q97VT7, W263L); format: biochemical
T2 construct: made in house; host or cells: E. coli BL21(DE3)-pGro7/GroEL

[3] = biological target: T3, Sulfolobus solfataricus SsoPox, wild type (wt), SEQ ID NO: 3 (Saccharolobus solfataricus, UniProt Q97VT7)
[4] = biological target: Sulfolobus solfataricus SsoPox variant W263F (of SEQ ID NO: 3) (Saccharolobus solfataricus, UniProt Q97VT7, W263F)
[5] = biological target: T4, Sulfolobus solfataricus SsoPox variant αsA1 (C258L/I261F/W263A), SEQ ID NO: 21 (Saccharolobus solfataricus, UniProt Q97VT7, C258L/I261F/W263A); format: biochemical; settings: for Catalytic activity: pH 8
T4 construct: made in house; host or cells: E. coli BL21(DE3)-pGro7/GroEL
T4 sequence (Q97VT7 1-314 C258L/I261F/W263A): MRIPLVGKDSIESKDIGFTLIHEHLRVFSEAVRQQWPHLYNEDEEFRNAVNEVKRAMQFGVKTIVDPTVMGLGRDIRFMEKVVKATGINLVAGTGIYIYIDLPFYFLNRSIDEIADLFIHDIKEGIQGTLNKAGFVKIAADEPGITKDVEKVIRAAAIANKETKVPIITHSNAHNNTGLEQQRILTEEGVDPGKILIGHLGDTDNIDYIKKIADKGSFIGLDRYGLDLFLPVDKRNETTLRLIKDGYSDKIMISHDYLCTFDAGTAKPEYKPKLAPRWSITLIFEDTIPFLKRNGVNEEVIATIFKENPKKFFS

[6] = biological target: T3, Sulfolobus solfataricus SsoPox, wild type (wt), SEQ ID NO: 3; design: made in house; host or cells: E. coli BL21(DE3)-pGro7/GroEL; settings: pH 8; cited from earlier work
[7] = biological target: T2, Sulfolobus solfataricus SsoPox variant W263L, SEQ ID NO: 11; format: biochemical; remark: listed apart in the source
[8] = biological target: Sulfolobus solfataricus SsoPox variant W263I, SEQ ID NO: 15 (Saccharolobus solfataricus, UniProt Q97VT7, W263I)
[9] = biological target: Sulfolobus solfataricus SsoPox variant W263V, SEQ ID NO: 17 (Saccharolobus solfataricus, UniProt Q97VT7, W263V)
[10] = biological target: Sulfolobus solfataricus SsoPox variant W263T, SEQ ID NO: 19 (Saccharolobus solfataricus, UniProt Q97VT7, W263T)
[11] = tested on: CCCCCCCCCC(=O)CC(=O)N[C@H]1CCOC1=O; test: purified protein, by the assay type; settings: pH 8.3; 25.0 °C
[12] = tested on: CCCCCCC1CCCC(=O)O1; test: purified protein, by the assay type; settings: pH 8.3; 25.0 °C
[13] = tested on: CCCCCCCC(=O)CC(=O)N[C@H]1CCOC1=O; test: purified protein, by the assay type; settings: pH 8.3; 25.0 °C
[14] = format: physicochemical; settings: pH 8

CCCCCCCC(=O)CC(=O)N[C@H]1CCOC1=O [3-oxo-C10 AHL]
Enhancement/wt [1]: 0 | Enhancement/wt [2]: 0 | Enhancement/wt [3]: 1 | kcat/KM [3]: 3.16(±0.40)×10^4 M^−1s^−1 | times better substrate / higher catalytic efficiency [3]: 10 times | Enhancement/wt [4]: 4.4(±1.0) × 10^−1

CCOP(=S)(OCC)Oc1ccc([N+](=O)[O-])cc1 [Ethyl-Parathion, ethyl-parathion]
Catalytic activity (very low hydrolysis) [5]: VLH

CCOC(=O)CC(SP(=S)(OC)OC)C(=O)OCC (stereo not drawn) [Malathion, malathion]
Catalytic activity [5]: 3.2 ± 0.7 M⁻¹ s⁻¹ | Catalytic activity [6]: 5.56 ± 1.26 M⁻¹ s⁻¹

COP(=O)(OC)Oc1ccc([N+](=O)[O-])cc1 [Methyl-paraoxon, methyl-paraoxon]
catalytic efficiency improvement induced by SDS [7]: 5.3 times | kcat/KM [7]: 3.16(±0.10) × 10^4 M^−1s^−1 and 1.69(±0.04) × 10^5 M^−1s^−1 | Catalytic activity [5]: 2.29(±1.09) · 10^4 M^−1s^−1 | Catalytic activity [6]: 1.27(±0.7) · 10^3 M^−1s^−1

COP(=S)(OC)Oc1ccc([N+](=O)[O-])cc1 [Methyl-parathion, methyl-parathion]
Km [7]: 168 ± 31 µM | kcat [7]: 1.22(±0.13) × 10^−1 s^−1 | kcat/KM [7]: 728 ± 156 M⁻¹ s⁻¹ | Catalytic activity [5]: 3.68(±0.5) · 10^1 M^−1s^−1 | Catalytic activity [6]: 9.09 ± 0.9 M⁻¹ s⁻¹

CCCCCCCC1CCC(=O)O1 (stereo not drawn) [Undecanoic-γ-lactone, undecanoic-γ-lactone]
Enhancement/wt [1]: 5.4 ± 1.3 | Enhancement/wt [2]: 4.4 ± 1.1 | Enhancement/wt [3]: 1 | kcat/KM [3]: 2.36 (±0.38)×10^3 M^−1s^−1 | Enhancement/wt [4]: 5.3 ± 1.8 | Enhancement/wt [8]: 2.3 ± 0.5 | Enhancement/wt [9]: 1.4 ± 0.4 | Enhancement/wt [10]: 147.9 ± 53.5

CCCCCCC1CCCC(=O)O1 (stereo not drawn) [Undecanoic-δ-lactone, undecanoic-δ-lactone]
Enhancement/wt [1]: 5.6 ± 2.0 | Enhancement/wt [2]: 3.3 ± 1.2 | Enhancement/wt [3]: 1 | kcat/KM [3]: 6.72(±2.54)×10^4 M^−1s^−1 | times better substrate / higher catalytic efficiency [3]: 10 times | Enhancement/wt [4]: 6.3 ± 2.7 | Enhancement/wt [8]: >73.8 ± 17.2 | kcat ([8]; pH 8.3): (5.80 ± 0.74) × 10^1 s^−1 | kcat/KM ([8]; pH 8.3): >5.80(±0.74) × 10^6 M^−1s^−1 | Enhancement/wt [9]: 10.1 ± 3.6 | Enhancement/wt [10]: 9.1 ± 3.5

Sulfolobus solfataricus SsoPox variant W263A, SEQ ID NO: 13 (Saccharolobus solfataricus P2; W263A)
Km [11]: 1640 ± 170 µM

Sulfolobus solfataricus SsoPox variant W263F (of SEQ ID NO: 3) (Saccharolobus solfataricus P2; W263F)
Km [12]: 135.2 ± 52.8 µM | kcat [12]: 66.5 ± 3.2 s⁻¹ | kcat/Km [12]: 492000 ± 193000 M⁻¹ s⁻¹ | Km [13]: 288 ± 56 µM | kcat [13]: 3.96 ± 0.18 s⁻¹ | kcat/Km [13]: 13800 ± 2800 M⁻¹ s⁻¹ | Km [11]: 146 ± 33 µM | kcat [11]: 0.66 ± 0.03 s⁻¹ | kcat/Km [11]: 4520 ± 1040 M⁻¹ s⁻¹

Sulfolobus solfataricus SsoPox variant W263I, SEQ ID NO: 15 (Saccharolobus solfataricus P2; W263I)
Km [13]: 1605 ± 443 µM | kcat [13]: 0.6 ± 0.09 s⁻¹ | kcat/Km [13]: 374 ± 117 M⁻¹ s⁻¹ | Km [11]: 17.8 ± 4.87 µM and 17.8 ± 4.9 µM | kcat [11]: 2.89 s⁻¹ and 2.89 ± 0.08 s⁻¹

Sulfolobus solfataricus SsoPox variant W263T, SEQ ID NO: 19 (Saccharolobus solfataricus P2; W263T)
Km [13]: 1000 ± 343 µM | kcat [13]: 0.107 ± 0.016 s⁻¹ | kcat/Km [13]: 106 ± 40 M⁻¹ s⁻¹ | Km [11]: 137 ± 19 µM | kcat [11]: 10.4 ± 0.35 s⁻¹ | kcat/Km [11]: 75600 ± 10800 M⁻¹ s⁻¹

Sulfolobus solfataricus SsoPox variant W263V, SEQ ID NO: 17 (Saccharolobus solfataricus P2; W263V)
Km [13]: 1346 ± 298 µM | kcat [13]: 0.19 ± 0.009 s⁻¹ | kcat/Km [13]: 141 ± 32 M⁻¹ s⁻¹ | Km [11]: 24.7 ± 5.2 µM | kcat [11]: 4.82 ± 0.11 s⁻¹ | kcat/Km [11]: 195000 ± 44000 M⁻¹ s⁻¹

Sulfolobus solfataricus SsoPox, wild type (wt), SEQ ID NO: 3 (Saccharolobus solfataricus P2)
Km [12]: 94 ± 18 µM | kcat [12]: 7.38 ± 0.28 s⁻¹ | kcat/Km [12]: 78600 ± 15300 M⁻¹ s⁻¹ | Km [13]: 143 ± 15 µM | kcat [13]: 4.52 ± 0.1 s⁻¹ | kcat/Km [13]: 31600 ± 4000 M⁻¹ s⁻¹ | Km [11]: 335 ± 10.4 µM and 456 ± 128 µM

B1: SsoPox wt: wild-type hyperthermophilic PTE of Sulfolobus solfataricus, sequence SEQ ID NO: 3 (protein, listed as Sulfolobus solfataricus)
chain: MRIPLVGKDSIESKDIGFTLIHEHLRVFSEAVRQQWPHLYNEDEEFRNAVNEVKRAMQFGVKTIVDPTVMGLGRDIRFMEKVVKATGINLVAGTGIYIYIDLPFYFLNRSIDEIADLFIHDIKEGIQGTLNKAGFVKIAADEPGITKDVEKVIRAAAIANKETKVPIITHSNAHNNTGLEQQRILTEEGVDPGKILIGHLGDTDNIDYIKKIADKGSFIGLDRYGLDLFLPVDKRNETTLRLIKDGYSDKIMISHDYCCTIDWGTAKPEYKPKLAPRWSITLIFEDTIPFLKRNGVNEEVIATIFKENPKKFFS
melting temperature [14]: 104 °C

B2: SsoPox W263L: SEQ ID NO: 3 with substitution of tryptophan W in position 263 by leucine L (protein, listed as Sulfolobus solfataricus)
chain: MRIPLVGKDSIESKDIGFTLIHEHLRVFSEAVRQQWPHLYNEDEEFRNAVNEVKRAMQFGVKTIVDPTVMGLGRDIRFMEKVVKATGINLVAGTGIYIYIDLPFYFLNRSIDEIADLFIHDIKEGIQGTLNKAGFVKIAADEPGITKDVEKVIRAAAIANKETKVPIITHSNAHNNTGLEQQRILTEEGVDPGKILIGHLGDTDNIDYIKKIADKGSFIGLDRYGLDLFLPVDKRNETTLRLIKDGYSDKIMISHDYCCTIDLGTAKPEYKPKLAPRWSITLIFEDTIPFLKRNGVNEEVIATIFKENPKKFFS
melting temperature [14]: 92.0±2.1 °C

B3: SsoPox W263M: SEQ ID NO: 3 with substitution of tryptophan W in position 263 by methionine M (protein, listed as Sulfolobus solfataricus)
chain: MRIPLVGKDSIESKDIGFTLIHEHLRVFSEAVRQQWPHLYNEDEEFRNAVNEVKRAMQFGVKTIVDPTVMGLGRDIRFMEKVVKATGINLVAGTGIYIYIDLPFYFLNRSIDEIADLFIHDIKEGIQGTLNKAGFVKIAADEPGITKDVEKVIRAAAIANKETKVPIITHSNAHNNTGLEQQRILTEEGVDPGKILIGHLGDTDNIDYIKKIADKGSFIGLDRYGLDLFLPVDKRNETTLRLIKDGYSDKIMISHDYCCTIDMGTAKPEYKPKLAPRWSITLIFEDTIPFLKRNGVNEEVIATIFKENPKKFFS
melting temperature [14]: 85.3±0.9 °C

B4: SsoPox W263F: SsoPox (SEQ ID NO: 3) with W263F variation (protein, listed as Sulfolobus solfataricus)
chain: MRIPLVGKDSIESKDIGFTLIHEHLRVFSEAVRQQWPHLYNEDEEFRNAVNEVKRAMQFGVKTIVDPTVMGLGRDIRFMEKVVKATGINLVAGTGIYIYIDLPFYFLNRSIDEIADLFIHDIKEGIQGTLNKAGFVKIAADEPGITKDVEKVIRAAAIANKETKVPIITHSNAHNNTGLEQQRILTEEGVDPGKILIGHLGDTDNIDYIKKIADKGSFIGLDRYGLDLFLPVDKRNETTLRLIKDGYSDKIMISHDYCCTIDFGTAKPEYKPKLAPRWSITLIFEDTIPFLKRNGVNEEVIATIFKENPKKFFS
melting temperature [14]: 91.8±1.7 °C
